Results published in article PMC9785812 (Pharmaceutics, 2022).
Read-outs that look alike come from different tables or passages of the source.

Tests used:
[1] = Stability test in PBS (iTLC); format: physicochemical; details: 37 °C, up to 7 days, ~5 MBq in 250 µL added to 4.75 mL, iTLC-SG, 0.5 M citrate pH 5.5, gamma counter
Procedure: (§1) Radiolabeling was performed by adding up to 200 MBq of the ^153Sm radiolabeling solution to 20 nmol of the DOTA-TATE precursor dissolved in 0.15 M NaOAc buffer (pH 4.7) in a total reaction volume of 1 mL. The reaction vial was placed in a Thermomixer C (Eppendorf) to stir (500 rpm) and the mixture was heated to 95 °C for 15 min. After incubation, the radiolabeling yield was evaluated using thin-layer chromatography. An amount of 1–2 µL of the reaction mixture was spotted on a glass microfiber chromatography paper strip impregnated with silica gel (iTLC-SG, Agilent Technologies, Diegem, Belgium) that was eluted with a 0.5 M citrate solution (pH 5.5). After elution, the TLC papers were cut in half and the activity of the bottom and top part of the TLC paper was counted for 2 min each using an automated gamma counter.
(§2) After 1 h, 3 days, 5 days and 7 days, a 5 µL sample was spotted on the TLC system described above to identify the intact fraction.

[2] = Shelf life in radiolabeling buffer at room temperature (iTLC); format: physicochemical; details: radiolabeling buffer (0.15 M NaOAc, pH 4.7), up to 7 days, iTLC-SG, gamma counter
Procedure: as §1, §2

CA20948 cells = assay: MTS viability assay; format: cell-based, rat; details: 4 h treatment, MTS after 4 days, relative to untreated cells, mean ± SD
Procedure: Rat pancreatic cancer cell line CA20948 was used given the somatostatin receptor 2 (SSTR2) overexpression as it is found in many human neuroendocrine tumors. Cells were grown in DMEM High Glucose and Pyruvate medium (Gibco 41966029) supplemented with 10% fetal bovine serum (Gibco 10270106) and 100 U/mL penicillin-streptomycin (Sigma-Aldrich P4333) and were maintained in a humidified incubator at 37 °C with 5% CO2 supply. All in vitro results were obtained from a minimum of three replicates per condition.
A total of 10,000 cells were seeded per well into a 96-well plate (31,250 cells/cm²). […] After 4 h incubation at 37 °C in 5% CO2, cells were washed and new medium was added. Then, after 4 days, MTS reagent was prepared according to the manufacturer’s instructions and added to the cells. Absorbance was measured at 490 nm using the BioTek Synergy H1 reader (Agilent). Cell viability was obtained as the ratio of the absorbance of a sample well to the average absorbance of untreated (0 MBq/mL) wells, after subtraction of the background signal of wells containing MTS reagent without cells. Statistical significance (p < 0.05) was determined using linear models.

[3] = Ex vivo biodistribution in healthy BALB/c mice; parameters: species or system mouse; details: mouse, iv; for tissue uptake dose at 1 h / tissue uptake dose at 24 h / tissue uptake dose at 72 h / SUV at 1 h / SUV at 4 h / SUV at 24 h / SUV at 72 h / tissue uptake dose at 4 h: total radioactivity
Procedure: Quantification of activity was performed with an automated gamma counter equipped with a 3-in NaI(Tl) detector coupled to a multichannel analyzer (2480 Wizard^2, Perkin Elmer, Zaventem, Belgium). The results were corrected for background signal, physical decay during counting and detector dead time.
All animal experiments were performed in compliance with the Ethical Committee Animal Studies of Medanex Clinic (EC MxCl 2020-163 and EC MxCl 2021-173), the Belgian laboratory animal legislation and the European Communities Council Directive of 22 September 2010 (2010/63/EU). Male BALB/c and NMRI nude mice were purchased from Janvier (Bio Services, Uden, The Netherlands) and housed in ventilated cages under standard laboratory conditions (12 h light/dark cycle) at the animal facility of SCK CEN. All animals had access to food and water ad libitum.
Additionally, similar biodistribution studies were performed with free (unlabeled) [^153Sm]SmCl3 to identify the organs with ^153Sm accumulation in case of release from the complex. […] The mice were sacrificed by an overdose pentobarbital (200 µL of 60 mg/mL) 1, 4, 24 and 72 h post-injection (p.i.) (n = 3–4 per time point). Blood was collected via cardiac puncture. Organs of interest were collected in tared tubes and weighed. The activity in the different organs was measured in the gamma counter. For the calculation of the total activity in the blood, bone and muscle, the masses were assumed to be, respectively, 7, 12 and 40% of the total body mass. Data were expressed as a percentage of injected activity (%IA) and standardized uptake value (SUV). %IA was calculated as (counts per min (cpm) in organ)/(IA converted to cpm) × 100. SUV was calculated as (activity in cpm in organ/weight of organ in g)/(IA/total body weight in g).

[4] = male, BALB/c, bone, read-out: Bone %IA
[5] = male, BALB/c, bone, read-out: Bone SUV
[6] = male, BALB/c, in vivo, read-out: Excreted %IA
[7] = male, BALB/c, intestines, read-out: Intestines %IA
[8] = male, BALB/c, kidneys, read-out: Kidneys SUV
[9] = male, BALB/c, liver, read-out: Liver SUV
[10] = male, BALB/c, muscle, read-out: Muscle %IA
[11] = male, BALB/c, pancreas, read-out: Pancreas %IA
[12] = male, BALB/c, spleen, read-out: Spleen %IA
[13] = male, BALB/c, spleen, read-out: Spleen SUV

C[C@@H](O)[C@H](NC(=O)[C@@H]1CSSC[C@H](NC(=O)[C@@H](Cc2ccccc2)NC(=O)CN2CCN(CC(=O)O)CCN(CC(=O)O)CCN(CC(=O)O)CC2)C(=O)N[C@@H](Cc2ccc(O)cc2)C(=O)N[C@H](Cc2c[nH]c3ccccc23)C(=O)N[C@@H](CCCCN)C(=O)N[C@@H]([C@@H](C)O)C(=O)N1)C(=O)O [[^153Sm]Sm-DOTA-TATE, metal not drawn]
radiochemical purity (intact fraction) [1]: > 99%
radiochemical purity (intact fraction) [2]: > 98%
cell viability (CA20948 cells; 1.25 MBq/mL): significantly lowered viability
cell viability, reduced down to (CA20948 cells; lowest viability over 0-10 MBq/mL): 48 ± 6%
tissue uptake dose at 1 h ([3]; male, BALB/c, blood, read-out: Blood %IA): 0.7 ± 0.3 %ID
tissue uptake dose at 1 h [3, 4]: 0.8 ± 0.4 %ID
tissue uptake dose at 24 h [3, 4]: 0.7 ± 0.1 %ID
tissue uptake dose at 72 h [3, 4]: 0.6 ± 0.1 %ID
SUV at 1 h [3, 5]: 0.1 SUV
SUV at 4 h [3, 5]: 0.1 SUV
SUV at 24 h [3, 5]: 0.1 SUV
SUV at 72 h [3, 5]: 0.1 SUV
SUV at 1 h ([3]; male, BALB/c, heart, read-out: Heart SUV): 0.1 SUV
tissue uptake dose at 1 h [3, 6]: 82 ± 4.8 %ID
tissue uptake dose at 4 h [3, 6]: 90.2 ± 0.7 %ID
tissue uptake dose at 24 h [3, 6]: 96.6 ± 0.4 %ID
tissue uptake dose at 1 h [3, 7]: 0.6 ± 0.1 %ID
tissue uptake dose at 4 h [3, 7]: 0.5 %ID
tissue uptake dose at 72 h [3, 7]: 0.1 %ID
tissue uptake dose at 4 h ([3]; male, BALB/c, kidneys, read-out: Kidneys %IA): 3.2 ± 0.1 %ID
SUV at 24 h [3, 8]: 0.4 ± 0.1 SUV
SUV at 72 h [3, 8]: 0.1 SUV
tissue uptake dose at 4 h ([3]; male, BALB/c, liver, read-out: Liver %IA): 2.5 ± 0.8 %ID
SUV at 1 h [3, 9]: 0.4 ± 0.1 SUV
SUV at 24 h [3, 9]: 0.3 SUV
tissue uptake dose at 1 h ([3]; male, BALB/c, lungs, read-out: Lungs %IA): 0.1 %ID
SUV at 4 h ([3]; male, BALB/c, lungs, read-out: Lungs SUV): 0.1 SUV
tissue uptake dose at 4 h [3, 10]: 1.1 ± 0.5 %ID
tissue uptake dose at 24 h [3, 10]: 0.1 %ID
tissue uptake dose at 72 h [3, 10]: 0.1 %ID
SUV at 1 h ([3]; male, BALB/c, muscle, read-out: Muscle SUV): 0.6 ± 0.3 SUV
tissue uptake dose at 1 h [3, 11]: 0.1 %ID
tissue uptake dose at 4 h [3, 11]: 0.1 %ID
SUV at 4 h ([3]; male, BALB/c, pancreas, read-out: Pancreas SUV): 0.1 SUV
tissue uptake dose at 1 h [3, 12]: 0.3 ± 0.1 %ID
tissue uptake dose at 4 h [3, 12]: 0.3 %ID
tissue uptake dose at 24 h [3, 12]: 0.3 ± 0.1 %ID
tissue uptake dose at 72 h [3, 12]: 0.1 %ID
SUV at 24 h [3, 13]: 0.9 ± 0.3 SUV
SUV at 72 h [3, 13]: 0.3 ± 0.1 SUV
tissue uptake dose at 4 h ([3]; male, BALB/c, stomach, read-out: Stomach %IA): 0.1 ± 0.1 %ID
SUV at 1 h ([3]; male, BALB/c, whole blood, read-out: Blood SUV): 0.1 SUV
tissue uptake dose at 4 h ([3]; blood, 4 h p.i., healthy male BALB/c mice, ~2-3 MBq i.v., mean ± SD, n = 3-4, read-out: Blood %IA): 0.2 %ID
tissue uptake dose at 4 h ([3]; bone, 4 h p.i., healthy male BALB/c mice, ~2-3 MBq i.v., mean ± SD, n = 3-4, read-out: Bone %IA): 0.6 ± 0.2 %ID
Blood %IA ([3]; in vivo): 0.0 ± 0.0 %IA
Blood SUV ([3]; in vivo): 0.0 ± 0.0
Brain %IA ([3]; in vivo): 0.0 ± 0.0 %IA
Brain SUV ([3]; in vivo): 0.0 ± 0.0
Heart %IA ([3]; in vivo): 0.0 ± 0.0 %IA
Heart SUV ([3]; in vivo): 0.0 ± 0.0
Lungs %IA ([3]; in vivo): 0.0 ± 0.0 %IA
Lungs SUV ([3]; in vivo): 0.0 ± 0.0
Muscle SUV ([3]; in vivo): 0.0 ± 0.0
Pancreas %IA ([3]; in vivo): 0.0 ± 0.0 %IA
Pancreas SUV ([3]; in vivo): 0.0 ± 0.0
Stomach %IA ([3]; in vivo): 0.0 ± 0.0 %IA
tissue uptake dose at 72 h ([3]; in vivo, 72 h p.i., healthy male BALB/c mice, ~2-3 MBq i.v., mean ± SD, n = 3-4, read-out: Excreted %IA): 97.8 ± 0.2 %ID
tissue uptake dose at 24 h ([3]; intestines, 24 h p.i., healthy male BALB/c mice, ~2-3 MBq i.v., mean ± SD, n = 3-4, read-out: Intestines %IA): 0.2 %ID
tissue uptake dose at 24 h ([3]; kidneys, 24 h p.i., healthy male BALB/c mice, ~2-3 MBq i.v., mean ± SD, n = 3-4, read-out: Kidneys %IA): 0.7 ± 0.2 %ID
tissue uptake dose at 72 h ([3]; kidneys, 72 h p.i., healthy male BALB/c mice, ~2-3 MBq i.v., mean ± SD, n = 3-4, read-out: Kidneys %IA): 0.2 %ID
SUV at 4 h ([3]; liver, 4 h p.i., healthy male BALB/c mice, ~2-3 MBq i.v., mean ± SD, n = 3-4, read-out: Liver SUV): 0.5 ± 0.2 SUV
tissue uptake dose at 24 h ([3]; liver, 24 h p.i., healthy male BALB/c mice, ~2-3 MBq i.v., mean ± SD, n = 3-4, read-out: Liver %IA): 1.6 ± 0.2 %ID
tissue uptake dose at 72 h ([3]; liver, 72 h p.i., healthy male BALB/c mice, ~2-3 MBq i.v., mean ± SD, n = 3-4, read-out: Liver %IA): 1.2 ± 0.2 %ID
SUV at 72 h ([3]; liver, 72 h p.i., healthy male BALB/c mice, ~2-3 MBq i.v., mean ± SD, n = 3-4, read-out: Liver SUV): 0.2 SUV
SUV at 1 h ([3]; lungs, 1 h p.i., healthy male BALB/c mice, ~2-3 MBq i.v., mean ± SD, n = 3-4, read-out: Lungs SUV): 0.2 SUV
SUV at 4 h ([3]; muscle, 4 h p.i., healthy male BALB/c mice, ~2-3 MBq i.v., mean ± SD, n = 3-4, read-out: Muscle SUV): 0.2 ± 0.1 SUV
SUV at 1 h ([3]; pancreas, 1 h p.i., healthy male BALB/c mice, ~2-3 MBq i.v., mean ± SD, n = 3-4, read-out: Pancreas SUV): 0.2 SUV
SUV at 1 h ([3]; spleen, 1 h p.i., healthy male BALB/c mice, ~2-3 MBq i.v., mean ± SD, n = 3-4, read-out: Spleen SUV): 0.8 ± 0.2 SUV
SUV at 4 h ([3]; spleen, 4 h p.i., healthy male BALB/c mice, ~2-3 MBq i.v., mean ± SD, n = 3-4, read-out: Spleen SUV): 0.8 ± 0.2 SUV
tissue uptake dose at 1 h ([3]; stomach, 1 h p.i., healthy male BALB/c mice, ~2-3 MBq i.v., mean ± SD, n = 3-4, read-out: Stomach %IA): 0.2 %ID
time without leaching of 153Sm from the chelator: > 7 days
